Experimental data taken from US20220064218A1 (Bicycle, published 2022).
*1 amine or outer side, *2 acyl side, *3 side chain or, on linkers, in order; H or OH if unused. Bridges are numbered along the chain shown (N, C = ends). Where no end group is shown, it is not given here. TATA = O=C(CC[*:1])N1CN(C(=O)CC[*:2])CN(C(=O)CC[*:3])C1

Target: T1, human CD38 (human, UniProt P28907 43-300, limits assumed)
T1 construct: also called hCD38
T1 sequence (looked up): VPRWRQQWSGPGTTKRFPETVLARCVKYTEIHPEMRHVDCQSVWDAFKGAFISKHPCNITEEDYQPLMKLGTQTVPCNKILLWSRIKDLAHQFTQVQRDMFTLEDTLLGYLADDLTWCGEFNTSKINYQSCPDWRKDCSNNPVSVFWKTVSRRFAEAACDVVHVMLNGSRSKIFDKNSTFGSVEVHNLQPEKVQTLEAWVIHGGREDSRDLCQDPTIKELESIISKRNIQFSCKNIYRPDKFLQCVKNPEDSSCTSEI
Assay: fluorescence polarisation competition with the labelled tracer peptide

B1: 66-50-16-T01-N001 (peptide)
peptide: ACYWNPFTACWSCEND
modifications: linker 2-10-13 via TATA (inferred)
notes: Synthetic bicyclic peptide cyclised with TATA
  Ki: 90 nM

B2: 66-50-19-T02-N001 (peptide)
peptide: ACYWNPFTACYSCTEN
modifications: linker 2-10-13 via TATA (inferred)
notes: Synthetic bicyclic peptide cyclised with TATA; also called 66-50-19-T002-N001
  Ki: 316 nM
